The values that follow come from publication PMC6697678.

This test deals with recombinant human soluble FcγRIIIa glycoprotein with a C-terminal hexahistidine tag (N-glycosylation sites kept at Asn45 and Asn162 only) (human). Description: high-speed atomic force microscopy (HS-AFM), bound-state dwell time.

Usually stoichiometry N stands for the number of molecules, sites or subunits per partner or assembly. As for “rituximab, anti-CD20 mouse/human-chimeric IgG1 (G1m17,1; Km3) (antibody)”, the dwell time was found to be 1 s and the stoichiometry N was 1.

With “trastuzumab, anti-HER2 humanized IgG1 (G1m17,1; Km3) (antibody)”, the dwell time worked out at 1 s and the stoichiometry N amounted to 1.
